Measurements from patent publication US12269859B2, “Synthetic immune receptors and methods of use thereof” (Angeles Therapeutics, Inc., priority 2016, dated 2025).

Tested on: target antigen-expressing cell line
Assay: Jurkat NFAT-GFP assay, coculture with target cell lines expressing the respective target antigen (summary Table 10A)
Assay type: cell-based, human
Set-up: key: The signs +/−, +, 2+ etc. after the name of the cell lines indicate the relative degree of positivity on the Jurkat-NFAT-GFP assay as measured by the % GFP positive cells; +: relative degree of positivity on the Jurkat-NFAT-GFP assay as measured by the % GFP positive cells; 2+: relative degree of positivity on the Jurkat-NFAT-GFP assay as measured by the % GFP positive cells
Procedure, shortened: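 Jurkat cells carrying an NFAT-driven GFP reporter and lentivirally expressing a SIR were cocultured with antigen-bearing target cells (E:T ~1:2) for about 4–18 h. GFP induction read by flow cytometry as % GFP+ cells, scored positive and graded (+/−, +, 2+) against parental Jurkat-NFAT-GFP cells.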

B1: 112916-C01 (protein)
chain: MALPVTALLLPLALLLHAARPDVVMTQTPLTLSVTIGQPASISCKSSQSLLDSDGKTYLHWLLQRPGQSPKRLIFLVSKLDSGVPDRFTGSGSGTDFTLKISRVEAEDLGVYYCWQGTHFPQTFGGGTKLEIKLEGKPIPNPLLGLDSTGSGEDLKNVFPPEVAVFEPSKAEIAHTQKATLVCLATGFYPDHVELSWWVNGKEVHSGVCTDPQPLKEQPALNDSRYCLSSRLRVSATFWQNPRNHFRCQVQFYGLSENDEWTQDRAKPVTQIVSAEAWGRADCGITSASYHQGVLSATILYEILLGKATLYAVLVSALVLMAMVKRKDSRGRAKRSGSGATNFSLLKQAGDVEENPGPTSMDWIWRILFLVGAATGAHSFEVQLQESGPDLVKPSQSLSLTCTVTGYSITSGYSWHWIRQFPGNKLEWMGYIHYSGDTDYNPSLKSRFSITRDTSKNQFFLQLNSVTTEDTATYYCATPGGFVYWGQGTLVTVSSTREQKLISEEDGSGIQNPDPAVYQLRDSKSSDKSVCLFTDFDSQTNVSQSKDSDVYITDKCVLDMRSMDFKSNSAVAWSNKSDFACANAFNNSIIPEDTFFPSSDVPCDVKLVEKSFETDTNLNFQNLSVIGFRILLLKVAGFNLLMTLRLWSSRAKRSGSGVKQTLNFDLLKLAGDVESNPGPSRGHMTEYKPTVRLATRDDVPRAVRTLAAAFADYPATRHTVDPDRHIERVTELQELFLTRVGLDIGKVWVADDGAAVAVWTTPESVEAGAVFAEIGPRMAELSGSRLAAQQQMEGLLAPHRPKEPAWFLATVGVSPDHQGKGLGSAVVLPGVEAAERAGVPAFLETSAPRNLPFYERLGFTVTADVEVPEGPRTWCMTRKPGA
modifications: Polynucleotide encoding a Synthetic Immune Receptor (SIR)
Coculture with L363 cells
  NFAT-GFP ASSAY Positive Cell lines: (+)
Coculture with U266 cells
  NFAT-GFP ASSAY Positive Cell lines: U266 (+/−), L363

B2: 112916-A01 (protein)
chain: MALPVTALLLPLALLLHAARPDIVMTQTPLSLPVTPGEPASISCRSSRSLLDSDDGNTYLDWYLQKPGQSPQLLIYTLSYRASGVPDRFSGSGSGTDFTLKISRVEAEDVGVYYCMQRVEFPITFGQGTRLEIKRLEGKPIPNPLLGLDSTGSGEDLKNVFPPEVAVFEPSKAEIAHTQKATLVCLATGFYPDHVELSWWVNGKEVHSGVCTDPQPLKEQPALNDSRYCLSSRLRVSATFWQNPRNHFRCQVQFYGLSENDEWTQDRAKPVTQIVSAEAWGRADCGITSASYHQGVLSATILYEILLGKATLYAVLVSALVLMAMVKRKDSRGRAKRSGSGATNFSLLKQAGDVEENPGPTSMDWIWRILFLVGAATGAHSFEQVQLVESGGGVVQPGRSLRLSCAASGFIFSRYGMHWVRQAPGKGLKWVAVIWYDGSNKLYADSVKGRFTISRDNSKNTLYLQMNSLRAEDTAVYYCARDYYDNSRHHWGFDYWGQGTLVTVSSTREQKLISEEDGSGIQNPDPAVYQLRDSKSSDKSVCLFTDFDSQTNVSQSKDSDVYITDKCVLDMRSMDFKSNSAVAWSNKSDFACANAFNNSIIPEDTFFPSSDVPCDVKLVEKSFETDTNLNFQNLSVIGFRILLLKVAGFNLLMTLRLWSSRAKRSGSGVKQTLNFDLLKLAGDVESNPGPSRGHMTEYKPTVRLATRDDVPRAVRTLAAAFADYPATRHTVDPDRHIERVTELQELFLTRVGLDIGKVWVADDGAAVAVWTTPESVEAGAVFAEIGPRMAELSGSRLAAQQQMEGLLAPHRPKEPAWFLATVGVSPDHQGKGLGSAVVLPGVEAAERAGVPAFLETSAPRNLPFYERLGFTVTADVEVPEGPRTWCMTRKPGA
modifications: Polynucleotide encoding a Synthetic Immune Receptor (SIR)
Coculture with SKOV3 cells
  NFAT-GFP ASSAY Positive Cell lines: SKOV3 (+)

B3: 010417-Y05 (protein)
chain: MALPVTALLLPLALLLHAARPLEGKPIPNPLLGLDSTGSGEDLKNVFPPEVAVFEPSKAEIAHTQKATLVCLATGFYPDHVELSWWVNGKEVHSGVCTDPQPLKEQPALNDSRYCLSSRLRVSATFWQNPRNHFRCQVQFYGLSENDEWTQDRAKPVTQIVSAEAWGRADCGITSASYHQGVLSATILYEILLGKATLYAVLVSALVLMAMVKRKDSRGRAKRSGSGATNFSLLKQAGDVEENPGPTSMALPVTALLLPLALLLHAARPDQIVLTQSPAIMSASPGEKVTISCSASSSVSYMYWYQQKPGSSPKPWIYRTSNLASGVPARFSGSGSGTSYSLTISNMEAEDAAAYYCQQYHSYPTTFGGGTKLEVKGGGGSGGGGSGGGGSEVQLVESGGGLVQPKGSLKLSCAASGFSFNTYAMNWVRQAPGKGLEWIAHIRSKSNNFATYYADSVKDRFSISRDASENILFLQMNNLKTEDTAMYYCVRQGGDFPMDYWGQGTSVTVSSTREAAAKEIVMTQSPATLSLSPGERATLSCRASQDISKYLNWYQQKPGQAPRLLIYHTSRLHSGIPARFSGSGSGTDYTLTISSLQPEDFAVYFCQQGNTLPYTFGQGTKLEIKGGGGSGGGGSGGGGSQVQLQESGPGLVKPSETLSLTCTVSGVSLPDYGVSWIRQPPGKGLEWIGVIWGSETTYYNSSLKSRVTISKDNSKNQVSLKLSSVTAADTAVYYCAKHYYYGGSYAMDYWGQGTLVTVSSTREQKLISEEDGSGIQNPDPAVYQLRDSKSSDKSVCLFTDFDSQTNVSQSKDSDVYITDKCVLDMRSMDFKSNSAVAWSNKSDFACANAFNNSIIPEDTFFPSSDVPCDVKLVEKSFETDTNLNFQNLSVIGFRILLLKVAGFNLLMTLRLWSSRAKRSGSGVKQTLNFDLLKLAGDVESNPGPSRGHMTEYKPTVRLATRDDVPRAVRTLAAAFADYPATRHTVDPDRHIERVTELQELFLTRVGLDIGKVWVADDGAAVAVWTTPESVEAGAVFAEIGPRMAELSGSRLAAQQQMEGLLAPHRPKEPAWFLATVGVSPDHQGKGLGSAVVLPGVEAAERAGVPAFLETSAPRNLPFYERLGFTVTADVEVPEGPRTWCMTRKPGA
Coculture with HEL cells
  NFAT-GFP ASSAY Positive Cell lines: (+), HEL (+)
Coculture with NALM6 cells
  NFAT-GFP ASSAY Positive Cell lines: (+), HEL (+)
Coculture with RAJI cells
  NFAT-GFP ASSAY Positive Cell lines: RAJI (+), NALM6

B4: 101817-E05 (protein)
chain: MALPVTALLLPLALLLHAARPQSVVTQPPSVSAAPGQKVTISCSGSSSNIGNNYVSWYQQLPGTAPKLLIYDNNKRPSGIPDRFSASKSGTSATLGITGLQTRDEADYYCGTWDSSLSAWVFGGGTKLTVLGLEIQNPDPAVYQLRDSKSSDKSVCLFTDFDSQTNVSQSKDSDVYITDKCVLDMRSMDFKSNSAVAWSNKSDFACANAFNNSIIPEDTFFPSSDVPCDVKLVEKSFETDTNLNFQNLSVIGFRILLLKVAGFNLLMTLRLWSSRAKRSGSGVKQTLNFDLLKLAGDVESNPGPTSMDWIWRILFLVGAATGAHSFEQVQLVQSGAEVKKPGSSVKVSCKASGDTFSSYYISWVRQAPGQGLEWMGRIIPILGIANYAQKYQGRVTLSADKSTSTSYMELNSLSSEDTAVYYCALDWSYSIDYWGQGTLVTVSSTREDLKNVFPPEVAVFEPSKAEIAHTQKATLVCLATGFYPDHVELSWWVNGKEVHSGVCTDPQPLKEQPALNDSRYCLSSRLRVSATFWQNPRNHFRCQVQFYGLSENDEWTQDRAKPVTQIVSAEAWGRADCGITSASYHQGVLSATILYEILLGKATLYAVLVSALVLMAMVKRKDSRGRAKRSGSGATNFSLLKQAGDVEENPGPSRGHMTEYKPTVRLATRDDVPRAVRTLAAAFADYPATRHTVDPDRHIERVTELQELFLTRVGLDIGKVWVADDGAAVAVWTTPESVEAGAVFAEIGPRMAELSGSRLAAQQQMEGLLAPHRPKEPAWFLATVGVSPDHQGKGLGSAVVLPGVEAAERAGVPAFLETSAPRNLPFYERLGFTVTADVEVPEGPRTWCMTRKPGA
Coculture with U266 cells
  NFAT-GFP ASSAY Positive Cell lines: U266(+/−)

B5: 022817-U05 (protein)
chain: MALPVTALLLPLALLLHAARPDIQMNQSPSSLSASLGDTITITCHASQNINVWLSWYQQKPGNIPKLLIYKASNLHTGVPSRFSGSGSGTGFTITISSLQPEDIATYYCQQGQSYPWTFGGGTKLEIKRLEGKPIPNPLLGLDSTGSGEDLKNVFPPEVAVFEPSKAEIAHTQKATLVCLATGFYPDHVELSWWVNGKEVHSGVCTDPQPLKEQPALNDSRYCLSSRLRVSATFWQNPRNHFRCQVQFYGLSENDEWTQDRAKPVTQIVSAEAWGRADCGITSASYHQGVLSATILYEILLGKATLYAVLVSALVLMAMVKRKDSRGRAKRSGSGATNFSLLKQAGDVEENPGPTSMDWIWRILFLVGAATGAHSFEEVQLQQSGPELVKPGASVKISCKASGYSFTGYFMNWVKQSHGKSLEYIGRFNPYNGETLYNQKFKGKATLTVDKSSSTVHMELLSVTSEDSAVYYCGRSGNDDAMDYWGQGTSVTVSSATREQKLISEEDGSGIQNPDPAVYQLRDSKSSDKSVCLFTDFDSQTNVSQSKDSDVYITDKCVLDMRSMDFKSNSAVAWSNKSDFACANAFNNSIIPEDTFFPSSDVPCDVKLVEKSFETDTNLNFQNLSVIGFRILLLKVAGFNLLMTLRLWSSRAKRSGSGVKQTLNFDLLKLAGDVESNPGPSRGHMTEYKPTVRLATRDDVPRAVRTLAAAFADYPATRHTVDPDRHIERVTELQELFLTRVGLDIGKVWVADDGAAVAVWTTPESVEAGAVFAEIGPRMAELSGSRLAAQQQMEGLLAPHRPKEPAWFLATVGVSPDHQGKGLGSAVVLPGVEAAERAGVPAFLETSAPRNLPFYERLGFTVTADVEVPEGPRTWCMTRKPGA
modifications: Polynucleotide encoding a Synthetic Immune Receptor (SIR)
Coculture with Jurkats-TCRgd-SIR cells
  NFAT-GFP ASSAY Positive Cell lines: Jurkats-TCRgd-SIR
